Holding throughout (assay): ITC
Background: Isothermal titration calorimetry measures the heat released or taken up as one component is titrated into another.

For test [1], the target named is Human Scribble PDZ1 domain (human) (UniProt Q14160).
Test [2] has as its target Human Scribble PDZ3 domain (human) (UniProt Q14160).
The target in test [3] is Human Scribble PDZ1 domain (human, UniProt Q14160 700-816).
For test [4], the target named is T1, Human Scribble PDZ3 domain (human, UniProt Q14160 1002-1092).
T1 sequence: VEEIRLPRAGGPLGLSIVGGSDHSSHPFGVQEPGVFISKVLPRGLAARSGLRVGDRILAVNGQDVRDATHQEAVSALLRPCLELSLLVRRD

The target in test [5] is T2, Scribble PDZ3 K1040A (human, UniProt Q14160 1002-1092, K1040A).
T2 sequence: T1 sequence with K39A

The target of test [6] is Scribble PDZ1 R762A (human, UniProt Q14160 700-816, R762A).

For orientation: Kd means the constant that tells how readily two partners part at equilibrium.

Substitutions are numbered along the chain they refer to.

Sequence of Human Scribble PDZ1 domain (Q14160 700-816): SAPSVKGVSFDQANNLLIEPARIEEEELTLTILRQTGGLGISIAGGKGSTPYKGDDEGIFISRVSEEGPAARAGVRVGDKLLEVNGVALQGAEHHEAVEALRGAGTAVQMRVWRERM
Sequence of Scribble PDZ1 R762A (Q14160 700-816 R762A): as the sequence (Q14160 700-816) above, with R63A counted along it
Sequence of Human Scribble PDZ1 domain (human) (Q14160 700-816): as the sequence (Q14160 700-816) above

With PTHR PBM peptide, 4-mer, the Kd in test [1] stood at 57 µM; in test [2] it was 17.1 µM.

B1: PTHR PBM peptide, 22-mer (peptide)
peptide: DEEASGPERPPALLQEEWETVM
For the molecule B1, the results for the dissociation constant (Kd) in test [3] and in test [4] were 11.5 µM and 19.2 µM, respectively.

B2: PTHR PBM peptide, 8-mer (peptide)
peptide: QEEWETVM
With B2, the Kd was found to be 31.7 µM in test [3], 23.5 µM in test [5], 13.4 µM in test [4] and 39.9 µM in test [6].

The values are drawn from article PMC10266016 (Proceedings of the National Academy of Sciences of the …, 2023).
